The values below come from patent publication US7985736B2, “High throughput screen utilizing newly discovered intramolecular neuronal calcium channel interactions to discover new analgesics” (The John Hopkins University, priority 2004, dated 2011).

This experiment has as its target T1, I-IIB-YFP (Homo sapiens, UniProt Q00975).
T1 construct: I-IIB residues, 357-482; expressed in transfected cells; host or cells: HEK293
The experiment is described as follows: Live-cell FRET two-hybrid assay versus I-IIB-YFP in HEK293 cells. The format is binding. The source says:
To confirm preferential interaction of NTB with I-IIB a live-cell FRET two-hybrid assay was used (Erickson et al., 2003), in which NTB, NTC, I-IIB, and I-IIC were fused to either CFP or YFP, and the resulting fusion constructs expressed pair-wise in mammalian HEK293 cells. Given a Forster distance of ˜50 Å for the CFP/YFP pair (Patterson et al., 2000), the presence of FRET in individual cells would give a strong indication of interpeptide binding in the mammalian intracellular milieu. This indication is generally characterized by a low false-positive rate (Erickson et al., 2003), so that FRET assays provide a useful complement to yeast two-hybrid assays (Allen et al., 1995). […] SCFP (the signal derived from an image obtained with the CFP filter cube) is selective for CFP fluorescence and thereby gives an optical measure of NTB-CFP expression. Analogously, the SYFP signal, derived from preferential excitation and detection of YFP, estimates I-IIB-YFP levels. Finally, the SFRET signal reflects I-IIB-YFP fluorescence stimulated by FRET transfer from NTB-CFP, as well as secondary cross-talk signals. These three signals can be incorporated within a three-cube FRET algorithm to determine the strength of FRET interaction (“FRET ratio,” FR), independently of cross-talk (Erickson et al., 2001). FR adopts a value of unity in the absence of FRET and grows linearly with increasing FRET efficiency (Erickson et al., 2003). FR values for many individual cells are plotted as circles in FIG. 2Eb, with numerous determinations clearly greater than unity. Alternatively, FR values specified by a YFP-photobleaching methodology were also elevated above unity (triangles) (Bastiaens and Jovin, 1996). […] Consistent with yeast two-hybrid assays, then, FRET assays confirmed a selective propensity for NTB and I-IIB segments to associate.
Human m2 muscarinic acetylcholine receptor (AF498916) was engineered to reduce desensitization (Pals-Rylaarsdam and Hosey, 1997). QuikChange (Stratagene, La Jolla, Calif.) introduced cluster mutations, yielding m2R: residues 286-290 (STSVS/AAAVA), residues 307-311 (TVSTS/AVAAA). For FRET assays, base templates were ECFP/EYFP-tagged calmodulin constructs in pcDNA3 (Invitrogen, Carlsbad, Calif.), as described (Erickson et al., 2001). PCR-amplified channel segments or G proteins were substituted for calmodulin via upstream EcoRI and downstream NheI sites, creating in-frame fusions with fluorophore (ECFP/EYFP C-terminal to test molecules). NTC residues, 1-53; I-IIB residues, 357-482; and I-IIC residues, 436-554.
Experiments were performed mostly as previously described (Erickson et al., 2001; Erickson et al., 2003). Briefly, the FRET Ratio (FR) is the fractional increase in YFP emission due to FRET. […] For donor-dequenching analysis, EEFF is calculated as EEFF=^1−CFPpre/CFPpost, where CFPpre and CFPpost are the CFP emissions before/after 3 min YFP photobleaching. FR is determined by FR=(EEFF/[EYFP/ECFP])+1, where EYFP/ECFP is ratio of YFP and CFP molar extinction coefficients through 440 nm excitation bandpass of FRET cube (0.0574). For binding model analysis, Kd,EFF is the effective dissociation constant, related to actual Kd via filter/microscope optical characteristics. […]
Experiments were performed as described previously for the most part (Erickson et al., 2001; Erickson et al., 2003). Specifically, for quantitative analysis, all fluorescence from single cells were isolated through a pinhole in the image plane, and detected by photo-multiplier tube. In all three-cube FRET experiments, CFP levels were below a threshold where spurious, concentration-dependent FRET became significant (Stratton et al., 2004). Similarly, for donor-dequenching experiments, YFP levels were below an analogous threshold. […]

T1 sequence (Q00975 357-482): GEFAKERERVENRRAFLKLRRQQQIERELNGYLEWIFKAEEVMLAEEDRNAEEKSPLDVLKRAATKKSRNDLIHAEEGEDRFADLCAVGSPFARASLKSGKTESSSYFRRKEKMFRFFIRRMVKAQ

With “NTC: NH3 terminus of L-type channel α1C subunit, free peptide [reference compound]”, the “Kd,EFF relative to NTB/I-IIB” value (NTC-CFP versus I-IIB-YFP, lower-limit estimate) is recorded as at least 8 fold. In addition, the “Kd,EFF / affinity for I-IIB (FRET), in words” value (relative dissociation constant, HEK293 cells) was “larger by an order of magnitude or more”.
